Measurements from patent publication US20240327530A1 (ICHNOS SCIENCES, published 2024).

T1: Human IL-1RAP, membrane-bound on human cells (HaCaT, dermal fibroblasts, neutrophils, PBMC, whole blood) (human, UniProt Q9NPH3 21-570)
T1 sequence: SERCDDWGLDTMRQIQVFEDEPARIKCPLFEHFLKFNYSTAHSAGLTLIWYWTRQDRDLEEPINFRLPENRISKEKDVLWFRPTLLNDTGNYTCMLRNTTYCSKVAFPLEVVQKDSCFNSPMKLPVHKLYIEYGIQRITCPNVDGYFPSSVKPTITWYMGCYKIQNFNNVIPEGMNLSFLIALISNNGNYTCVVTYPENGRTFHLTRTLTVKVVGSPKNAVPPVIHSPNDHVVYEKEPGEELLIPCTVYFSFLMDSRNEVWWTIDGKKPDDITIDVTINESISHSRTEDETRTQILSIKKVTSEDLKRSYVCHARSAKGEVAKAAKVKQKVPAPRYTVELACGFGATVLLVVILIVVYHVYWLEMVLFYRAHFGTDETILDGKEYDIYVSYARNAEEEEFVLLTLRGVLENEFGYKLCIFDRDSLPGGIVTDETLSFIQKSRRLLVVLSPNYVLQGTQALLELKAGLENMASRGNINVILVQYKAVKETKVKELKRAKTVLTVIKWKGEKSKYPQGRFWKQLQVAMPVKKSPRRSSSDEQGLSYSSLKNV

T2: Recombinant mouse IL-1RAP-his (Sino Biologicals, catalog no. 52657-M08H) (mouse, UniProt Q61730 21-350)
T2 construct: Bought; not shown: His tag of the bought protein
T2 sequence: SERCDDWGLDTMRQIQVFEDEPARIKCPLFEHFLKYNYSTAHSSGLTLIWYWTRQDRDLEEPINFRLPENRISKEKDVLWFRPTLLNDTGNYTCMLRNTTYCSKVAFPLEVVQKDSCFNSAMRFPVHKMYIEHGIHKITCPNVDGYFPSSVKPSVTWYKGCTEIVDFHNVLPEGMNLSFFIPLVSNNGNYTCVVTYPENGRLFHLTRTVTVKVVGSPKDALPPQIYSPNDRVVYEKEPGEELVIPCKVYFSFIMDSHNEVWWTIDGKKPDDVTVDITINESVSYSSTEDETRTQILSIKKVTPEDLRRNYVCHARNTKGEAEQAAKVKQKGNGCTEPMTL

T3: Recombinant cynomolgus monkey IL-1RAP-ECD(S21-E359)-avi-his protein (cynomolgus monkey, UniProt P59822 21-359 (rhesus entry))
T3 construct: also called cyno IL-1RAP-ECD-Avi-His; recombinant cynomolgus monkey IL-1RAP-avi-his protein
T3 sequence: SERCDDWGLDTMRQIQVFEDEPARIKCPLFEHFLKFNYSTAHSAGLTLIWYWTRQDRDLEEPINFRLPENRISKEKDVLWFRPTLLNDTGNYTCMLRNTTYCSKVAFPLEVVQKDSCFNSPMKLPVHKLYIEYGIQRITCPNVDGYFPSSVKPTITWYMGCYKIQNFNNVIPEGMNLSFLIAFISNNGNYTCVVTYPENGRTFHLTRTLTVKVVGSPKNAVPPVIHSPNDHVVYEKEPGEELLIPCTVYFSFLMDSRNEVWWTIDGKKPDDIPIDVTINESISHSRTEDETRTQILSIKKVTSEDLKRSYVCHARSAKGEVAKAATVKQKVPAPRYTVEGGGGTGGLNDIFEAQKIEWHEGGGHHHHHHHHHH


How the values were obtained:
[1] = target: T1, Human IL-1RAP, membrane-bound on human …; experiment: cell-based or functional assay
[2] = target: T2, Recombinant mouse IL-1RAP-his (Sino …); experiment: SPR, mouse IgG2a LALA captured on anti-mouse IgG Fc CM5 chip, mouse IL-1RAP-his as analyte in a concentration series, 1:1 fit, one representative replicate
Protocol: Anti-IL-1RAP-C3-A3 mouse IgG2a LALA was immobilized on a Series S CM5 sensor CHIP coupled with anti-mouse IgG Fc. Mouse IL-1RAP-his was injected over immobilized IgG2a LALA in concentration series in HBS-EP+ buffer. One representative replicate is presented. Plots are showing data expressed as number of resonance units (abbreviated RU; Y axis) vs. time (s, X axis). Dotted lines represent the measured data while solid lines represent simulated fits. KD: equilibrium dissociation constant; Ka: association constant; Kd: dissociation constant.
Surface plasmon resonance (SPR) was used to measure the binding affinities of mouse IgG2a LALA molecules for mouse IL-1RAP. Affinity was measured on a BIACORE™ T200 instrument (BIACORE™ GE […]®) at 25° C. and analyzed with the BIACORE™ T200 Evaluation Software (v3.1). Measurements were performed on Series S CM5 sensor chips (BIACORE™ T200, BIACORE™, GE […]®, catalog no. BR100530) coupled with anti-mouse IgG Fc (BIACORE™, GE […]®, catalog no. BR100838) using a commercial amine coupling kit (BIACORE™, GE […]®, catalog no. BR100050). SPR measurements were performed with commercially available recombinant mouse IL-1RAP-his (Sino Biologicals, catalog no. 52657-M08H). The affinity to mouse IL-1RAP was assessed by immobilizing anti-mouse IL-1RAP mouse IgG2a LALA molecule and using mouse IL-1RAP protein as analyte. Around 150 RU of mouse IgG2a LALA was captured on fc2 of a Series S CM5 sensor chip coupled with anti-mouse IgG Fc. Mouse IL-1RAP-his was injected in multi cycle kinetic at different concentrations ranging from 0.14 to 100 nM, in HBS-EP+ buffer (BIACORE™, GE […]®, catalog no. BR100669) at a flow rate of 30 μl/min for 3 min on fc1 and fc2 (fc1 being used as reference). Dissociation was monitored for 15 min. After each cycle, the surface was regenerated with 60 μl of regeneration solution provided with anti-mouse IgG Fc capture kit (BIACORE™ GE […]®, catalog no. BR100838). Experimental data were processed using the 1:1 Langmuir kinetic fitting model. Measurements included zero-concentration samples for referencing. […]

[3] = target: T3, Recombinant cynomolgus monkey …; experiment: SPR

human whole blood, IL-1alpha stimulation, IL-6 release, mean EC50 of inhibition [1] [nM]	human whole blood, IL-1alpha stimulation, IL-8 release, mean EC50 of inhibition [1] [nM]	human whole blood, IL-1alpha stimulation, MCP-1 release, mean EC50 of inhibition [1] [nM]	human whole blood, IL-1alpha stimulation, MIP-1alpha release, mean EC50 of inhibition [1] [nM]	human whole blood, IL-1alpha stimulation, MIP-1beta release, mean EC50 of inhibition [1] [nM]	human whole blood, IL-1beta stimulation, IL-6 release, mean EC50 of inhibition [1] [nM]	human whole blood, IL-1beta stimulation, IL-8 release, mean EC50 of inhibition [1] [nM]	human whole blood, IL-1beta stimulation, MCP-1 release, mean EC50 of inhibition [1] [nM]	human whole blood, IL-1beta stimulation, MIP-1alpha release, mean EC50 of inhibition [1] [nM]	human whole blood, IL-1beta stimulation, MIP-1beta release, mean EC50 of inhibition [1] [nM]	Kd [2] [nM]	koff [2] [s⁻¹]	kon [2] [M⁻¹ s⁻¹]	binding result [3]	Binder
9.5	14.2	11.1	15	89	8.8	24.7	17.7	16	53.3	–	–	–	–	Anti-IL-1RAP-C8-RecC-ES-IgG1LALA (antibody, V domains shown, also called ISB 880-C8-recC-ES) VH: QVQLVQSGAEVKKPGSSVKVSCKASGSPAEPYAIQWVRQAPGQGLEWMGYIIPSLGGYDYAQKFQGRVTITADESTSTAYMELSSLRSEDTAVYYCARGQTLYESGRQFDIWGQGTLVTVSS VL: not shown
–	–	–	–	–	–	–	–	–	–	0.557	7.6e-05	137000	no binding	Anti-IL-1RAP-C3-A3 mmIgG2a LALA (antibody, V domains shown, also called anti-IL-1RAP-C3-A3 mouse IgG2a LALA) VH: EVQLLESGGGLVQPGGSLRLSCAASGFIFSHYGMSWVRQAPGKGLEWVSAISYDGEGTLYADSVKGRFTISRDNSKNTLYLQMNSLRAEDTAVYYCARFRYYTAFDYWGQGTLVTVSS VL: not shown
